Tested on: subcutaneous tissue
Test: Tissue histology surrounding CSII catheters, pathologist grading
Assay type: in vivo, swine
Settings: for Tissue histopathology compared with catheters infused with saline or not infused: day 5 of CSII infusion, result in words
Experimental: The swine were euthanized after completion of the third PK study on day 5. A 50 μL bolus of methylene blue dye was then infused into the CCs and ICs to determine whether dye migrated onto the skin surface. The skin and subcutaneous tissue surrounding the 72 catheters were excised and fixed in 10% formalin for 3 days. The tissue was grossed and processed using a long dehydration protocol for fatty tissue.[21] Specimens were sectioned perpendicular or parallel to the skin surface depending on the location and angle of the cannula in the excised tissue specimen. Four-micrometer-thick tissue sections were stained with hematoxylin and eosin (nuclei are stained blue/purple, extracellular matrix [ECM] and cytoplasm are stained in pink), Masson's trichrome (collagen/connective tissue is stained blue, muscle fibers and erythrocytes are stained bright red, and cytoplasm is stained pink), and a reticulin stain (type III collagen is stained silver).
A surgical pathologist analyzed the stained tissue for no, mild, moderate, or severe (grades 0, 1, 2, or 3, respectively) hemorrhage, reticular fiber disruption, fibrin deposition, fat necrosis, and collagen deposition compared with unaffected tissue. This grading system was newly established by the lead pathologist of this study who predefined these criteria before analyzing all samples. The pathologist remained blinded throughout the study. The size of the debris field was measured (mm) using the Aperio ScanScope image capture device and ImageScope software (Leica Biosystems). Topography of tissue planes was considered regular if subcutaneous tissue was pushed down evenly in the direction of the cannula tip and irregular or intermediate otherwise. Irregular or regular reservoir geometry described the shape of the debris field surrounding the catheter tip.
Fisher's exact test was used to evaluate the differences in histology profiles of CCs and ICs. A chi-squared test was applied to analyze differences in methylene blue dye leakage.

[1] = swine s.c. tissue, day 5, insulin-infused CSII catheters (CC + IC), count (percent in brackets)
[2] = swine s.c. tissue, day 5, insulin-infused CSII catheters (CC + IC), count (percent in brackets), P < 0.05 between infusion types
[3] = swine, day 5, insulin-infused CC, count (percent of 11 catheters)
[4] = swine, day 5, insulin-infused IC, count (percent of 12 catheters)

insulin lispro
Collagen deposition at tip: catheters graded Mild [1]: 16 (66.7)
Collagen deposition at tip: catheters graded Moderate [1]: 5 (20.8)
Collagen deposition at tip: catheters graded None [1]: 2 (8.3)
Collagen deposition at tip: catheters graded Severe [1]: 1 (4.2)
Fat Necrosis: catheters graded Mild [1]: 5 (20.8)
Fat Necrosis: catheters graded Moderate [1]: 12 (50.0)
Fat Necrosis: catheters graded None [1]: 1 (4.2)
Fat Necrosis: catheters graded Severe [1]: 6 (25.0)
Hemorrhage at tip base: catheters graded Mild [1]: 13 (54.2)
Hemorrhage at tip base: catheters graded Moderate [1]: 10 (41.7)
Hemorrhage at tip base: catheters graded None [1]: 1 (4.2)
Hemorrhage at tip base: catheters graded Severe [1]: 0
Reticular Fiber Disruption: catheters graded Mild [1]: 9 (37.5)
Reticular Fiber Disruption: catheters graded Moderate [1]: 6 (25.0)
Reticular Fiber Disruption: catheters graded None [1]: 1 (4.2)
Reticular Fiber Disruption: catheters graded Severe [1]: 8 (33.3)
Fibrin Deposition in Reservoir: catheters graded Mild [2]: 2 (8.3)
Fibrin Deposition in Reservoir: catheters graded None [2]: 1 (4.2)
Fibrin deposition in reservoir: catheters graded Moderate [2]: 11 (45.8)
Fibrin deposition in reservoir: catheters graded Severe [2]: 10 (41.7)
Tissue histopathology compared with catheters infused with saline or not infused (swine s.c. tissue): increased fibrin
Tissue histopathology compared with catheters infused with saline or not infused (swine s.c. tissue, listed as lispro insulin): greater amount of fibrin in the reservoir
Collagen Deposition at Tip: catheters graded Mild [3]: 9 (82%)
Collagen Deposition at Tip: catheters graded Moderate [3]: 2 (18%)
Collagen Deposition at Tip: catheters graded None [3]: 0
Collagen Deposition at Tip: catheters graded Severe [3]: 0
Fat Necrosis: catheters graded Mild [3]: 4 (36%)
Fat Necrosis: catheters graded Moderate [3]: 7 (64%)
Fat Necrosis: catheters graded None [3]: 0
Fat Necrosis: catheters graded Severe [3]: 0
Fibrin Deposition in Reservoir: catheters graded Mild [3]: 0
Fibrin Deposition in Reservoir: catheters graded None [3]: 0
Fibrin deposition in reservoir: catheters graded Moderate [3]: 3 (27%)
Hemorrhage at Tip Base: catheters graded Mild [3]: 7 (64%)
Hemorrhage at Tip Base: catheters graded Moderate [3]: 4 (36%)
Hemorrhage at Tip Base: catheters graded None [3]: 0
Hemorrhage at Tip Base: catheters graded Severe [3]: 0
Reticular Fiber Disruption: catheters graded Mild [3]: 9 (82%)
Reticular Fiber Disruption: catheters graded Moderate [3]: 2 (18%)
Reticular Fiber Disruption: catheters graded None [3]: 0
Reticular Fiber Disruption: catheters graded Severe [3]: 0
Collagen Deposition at Tip: catheters graded Mild [4]: 7 (58%)
Collagen Deposition at Tip: catheters graded Moderate [4]: 3 (25%)
Collagen Deposition at Tip: catheters graded None [4]: 1 (8%)
Collagen Deposition at Tip: catheters graded Severe [4]: 1 (8%)
Fat Necrosis: catheters graded Mild [4]: 1 (8%)
Fat Necrosis: catheters graded Moderate [4]: 5 (42%)
Fat Necrosis: catheters graded None [4]: 0
Fat Necrosis: catheters graded Severe [4]: 6 (50%)
Fibrin Deposition in Reservoir: catheters graded Mild [4]: 2 (17%)
Fibrin Deposition in Reservoir: catheters graded None [4]: 0
Fibrin deposition in reservoir: catheters graded Severe [4]: 2 (17%)
Hemorrhage at Tip Base: catheters graded Mild [4]: 6 (50%)
Hemorrhage at Tip Base: catheters graded Moderate [4]: 6 (50%)
Hemorrhage at Tip Base: catheters graded None [4]: 0
Hemorrhage at Tip Base: catheters graded Severe [4]: 0
Reticular Fiber Disruption: catheters graded Mild [4]: 0
Reticular Fiber Disruption: catheters graded Moderate [4]: 4 (33%)
Reticular Fiber Disruption: catheters graded None [4]: 0
Reticular Fiber Disruption: catheters graded Severe [4]: 8 (67%)

Source: publication PMC5689134, “Detailed Analysis of Insulin Absorption Variability and the Tissue Response to Continuous Subcutaneous Insulin Infusion Catheter Implantation in Swine” (Diabetes Technology & Therapeutics, 2017)
